Experiment [1] deals with biotinylated human FcRn (p51 subunit residues 24-297 with C-terminal Avi-tag; beta2-microglobulin residues 21-119) (human) (UniProt P55899). The experiment in a line: Biacore SPR, pH 6.0. A general note: SPR reads the build-up and loss of mass on a sensor chip optically.
In experiment [2] the target is biotinylated human FcRn (human) (UniProt P55899). Briefly: Biacore SPR, pH 6.0.
For experiment [3] the target is unchanged. The experiment in a line: Biacore, pH 6.0, apparent KD.
For experiment [4] the target is unchanged. The experiment in a line: Biacore, pH 7.4, steady state response.
Experiment [5] addresses biotinylated human FcRn (p51 subunit residues 24-297 with C-terminal Avi-tag; beta2-microglobulin residues 21-119) (human) (UniProt P55899). The experiment in a line: Biacore SPR, pH 7.4, steady state.
Experiment [6] concerns the target biotinylated human FcRn (human) (UniProt P55899). Briefly: Biacore, pH 6.0.
Experiment [7] addresses biotinylated human FcRn (p51 subunit residues 24-297 with C-terminal Avi-tag; beta2-microglobulin residues 21-119) (human) (UniProt P55899). Briefly: Biacore; inverse ratio (RU at pH 7.4 over affinity at pH 6.0).
The target is the same in experiment [8]. Briefly: Biacore; affinity at pH 6.0 (M^-1) over steady state RU at pH 7.4.
For experiment [9], the target named is biotinylated human FcRn (human) (UniProt P55899). Briefly: Biacore SPR, pH 7.4.
The target is the same in experiment [10]. Briefly: Biacore SPR, pH 7.4, 1000 nM antibody.
Experiment [11] concerns the target rat FcRn (rat) (UniProt P13599). Briefly: Octet BLI, pH 6.0. On the technique in general: Biolayer interferometry detects binding as a change in optical thickness at a sensor tip.
The target of experiment [12] is Human CD16a (FcγRIIIa V158) with C-terminal HPC4 tag (human) (UniProt P08637). The experiment in a line: Biacore SPR, FcγRIIIa-V158 captured, pH 7.4.
Human CD16a (FcγRIIIa V158) with C-terminal HPC4 tag (human), sequence (P08637 17-208 F176V): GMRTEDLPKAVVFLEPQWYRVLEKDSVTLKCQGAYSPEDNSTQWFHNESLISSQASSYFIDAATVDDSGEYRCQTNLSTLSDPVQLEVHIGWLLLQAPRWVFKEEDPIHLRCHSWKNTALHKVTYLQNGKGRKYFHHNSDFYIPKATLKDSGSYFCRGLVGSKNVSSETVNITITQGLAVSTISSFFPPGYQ
In experiment [13] the target is rat FcRn (rat) (UniProt P13599). Briefly: Biacore SPR, pH 6.0.
rat FcRn (rat), sequence (P13599 23-298 limits assumed, chain 1 of 2): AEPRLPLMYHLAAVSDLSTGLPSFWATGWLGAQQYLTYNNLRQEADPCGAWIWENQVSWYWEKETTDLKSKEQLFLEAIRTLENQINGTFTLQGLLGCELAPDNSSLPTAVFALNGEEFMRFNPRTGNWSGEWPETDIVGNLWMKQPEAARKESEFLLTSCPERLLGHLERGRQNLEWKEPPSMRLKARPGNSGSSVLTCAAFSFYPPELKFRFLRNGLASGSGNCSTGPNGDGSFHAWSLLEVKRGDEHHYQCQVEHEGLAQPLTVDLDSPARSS
rat FcRn (rat), sequence (P07151 21-119 limits assumed, chain 2 of 2, further chain): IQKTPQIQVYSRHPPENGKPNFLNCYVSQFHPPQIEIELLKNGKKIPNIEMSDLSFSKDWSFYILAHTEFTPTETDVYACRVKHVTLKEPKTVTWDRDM
The target is the same in experiment [14]. Briefly: Biacore, pH 6.0, apparent KD.
For experiment [15], the target named is FcRn immobilised on the FcRn affinity column (biotinylated cynoFcRn in one experiment, biotinylated hFcRn in another). The experiment in a line: FcRn affinity chromatography, linear pH gradient; species of the immobilised FcRn not given.
Experiment [16] deals with biotinylated human FcRn (human) (UniProt P55899). The experiment in a line: Biacore SPR, pH 6.0. The source holds these as a separate data set.
Experiment [17] concerns the target rat FcRn (rat) (UniProt P13599). Briefly: Biacore, pH 7.4, steady state response.
Experiment [18] concerns the target Human CD16a (FcγRIIIa V158) with C-terminal HPC4 tag (human) (UniProt P08637). The experiment in a line: Biacore, FcγRIIIa V158 captured, steady-state fit, apparent KD.
Experiment [19] concerns the target rat FcRn (rat) (UniProt P13599). Briefly: Biacore, pH 6.0.
Experiment [20] shares this target. Briefly: Biacore SPR, pH 7.4.
For experiment [21], the target named is biotinylated human FcRn (human) (UniProt P55899). Briefly: Biacore SPR, pH 7.4. The source holds these as a separate data set.
The target in experiment [22] is rat FcRn (rat) (UniProt P13599). Briefly: Biacore SPR, pH 7.4, 1000 nM antibody.
Experiment [23] has the same target. Briefly: Biacore SPR, pH 6.0. This is another data set of the same source.
Experiment [24] deals with Human CD16a (FcγRIIIa V158) with C-terminal HPC4 tag (human) (UniProt P08637). The experiment in a line: Biacore SPR, FcγRIIIa.
Experiment [25] deals with rat FcRn (rat) (UniProt P13599). Briefly: Octet BLI screen, pH 6.0.

The results in this text go back to patent US20210024620A1.

biotinylated human FcRn (p51 subunit residues 24-297 with C-terminal Avi-tag; beta2-microglobulin residues 21-119) (human), sequence (P55899 24-297 limits assumed, chain 1 of 2): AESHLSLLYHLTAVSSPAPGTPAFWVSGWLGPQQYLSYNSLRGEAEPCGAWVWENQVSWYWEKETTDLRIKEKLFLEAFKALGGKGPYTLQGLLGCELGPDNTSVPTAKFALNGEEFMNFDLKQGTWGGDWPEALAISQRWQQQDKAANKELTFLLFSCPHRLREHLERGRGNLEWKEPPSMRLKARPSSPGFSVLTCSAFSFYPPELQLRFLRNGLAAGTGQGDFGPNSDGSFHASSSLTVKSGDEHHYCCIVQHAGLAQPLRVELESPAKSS
biotinylated human FcRn (p51 subunit residues 24-297 with C-terminal Avi-tag; beta2-microglobulin residues 21-119) (human), sequence (P61769 21-119 limits assumed, chain 2 of 2, further chain): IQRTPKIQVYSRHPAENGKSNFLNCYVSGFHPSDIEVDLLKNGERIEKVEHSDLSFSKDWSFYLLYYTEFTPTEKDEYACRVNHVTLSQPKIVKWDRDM
biotinylated human FcRn (human), sequence (P55899 24-297 limits assumed, chain 1 of 2): as the sequence (P55899 24-297 limits assumed, chain 1 of 2) above
biotinylated human FcRn (human), sequence (P61769 21-119 limits assumed, chain 2 of 2, further chain): as the sequence (P61769 21-119 limits assumed, chain 2 of 2, further chain) above

Usually koff stands for the first-order rate constant of dissociation. As a reminder, the kon is the rate constant with which the complex forms. As to “mAb1 AAA (T307A/E380A/N434A) (antibody; other documents disagree on this pair)”, the Ka in experiment [1] came out at 562000 M⁻¹. The Kd in [2] and in [3] was 1780 nM in each case. Further, the koff in [2] was determined as 0.144 s⁻¹; in [6] it was 0.14 s⁻¹. The kon in experiment [2] worked out at 83700 M⁻¹ s⁻¹; in experiment [6], 84000 M⁻¹ s⁻¹. Also, the Steady State RU is 13.9 RU in experiment [4], 13.1 RU in experiment [9] and 13.9 RU in [10]. In addition, the Steady State Binding, pH 7.4 (RU) in [5] is 13.9 RU. The Ratio (pH 6.0/pH 7.4) in experiment [7] came to 2.47e-05; in experiment [8] it was 40400.
On to mAb1 LS (M428L/N434S) (antibody), for which the koff with rat FcRn (rat) [11] was determined as 0.00338 s⁻¹; with rat FcRn (rat) [13] it was 0.00658 s⁻¹; in experiment [2] it was 0.052 s⁻¹; in experiment [16], 0.05 s⁻¹; with rat FcRn (rat) [19], 0.0066 s⁻¹; in experiment [6] it was 0.05 s⁻¹. The FcγRIIIa V158 affinity fold change relative to WT in experiment [12] came out at 1.04 fold. Further, the Kd with rat FcRn (rat) [13] is 74 nM; in the experiment with rat FcRn (rat) [14] it was 74 nM; in experiment [3] it was 272 nM; in [16] it was 272 nM; in experiment [18] it was 369 nM. In addition, the kon came to 90800 M⁻¹ s⁻¹ with rat FcRn (rat) [13]; 193000 M⁻¹ s⁻¹ in experiment [2]; 190000 M⁻¹ s⁻¹ in experiment [16]; 91000 M⁻¹ s⁻¹ with rat FcRn (rat) [19]; 193000 M⁻¹ s⁻¹ in [6]. The Ka in [1] came to 3.68e+06 M⁻¹. Besides, the FcRn affinity column elution pH in experiment [15] worked out at 8.29 pH. The Steady State RU with rat FcRn (rat) [17] was determined as 24.8 RU; in [4], 18.3 RU; with rat FcRn (rat) [20], 24.8 RU; in experiment [21], 18.3 RU; in experiment [9] it was 18.5 RU; in the experiment with rat FcRn (rat) [22], 24.8 RU. The same substance registered a Steady State RU in experiment [10] of 18.3 RU. In [5], this substance returned a Steady State Binding, pH 7.4 (RU) of 18.3 RU. Besides, the Ratio (pH 6.0/pH 7.4) came out at 4.97e-06 in experiment [7] and 201000 in [8].
On to mAb1 MDWN (T256D/T307W) (antibody), for which the FcγRIIIa V158 affinity fold change relative to WT in experiment [12] was 0.89 fold. The Kd with rat FcRn (rat) [13] turned out to be 8.24 nM; in experiment [2] it was 169 nM; in the experiment with rat FcRn (rat) [14] it was 8.2 nM; in [3], 169 nM; with rat FcRn (rat) [23], 8.2 nM; in experiment [18] it was 512 nM. The koff with rat FcRn (rat) [13] worked out at 0.00129 s⁻¹; in experiment [2], 0.0892 s⁻¹; in experiment [16], 0.089 s⁻¹; in the experiment with rat FcRn (rat) [19] it was 0.0013 s⁻¹; in [6], 0.089 s⁻¹. In addition, the kon in the experiment with rat FcRn (rat) [13] turned out to be 157000 M⁻¹ s⁻¹; in experiment [2] it was 529000 M⁻¹ s⁻¹; in [16] it was 530000 M⁻¹ s⁻¹; in the experiment with rat FcRn (rat) [19], 16000 M⁻¹ s⁻¹; in [6], 530000 M⁻¹ s⁻¹. The substance also gave a Ka in [1] of 5.92e+06 M⁻¹. Besides, the FcRn affinity column elution pH in experiment [15] was 7.92 pH. The Steady State RU with rat FcRn (rat) [17] was 42.1 RU; in experiment [4], 12.2 RU; with rat FcRn (rat) [20] it was 42.1 RU; in experiment [21], 12.2 RU. The Steady State Binding, pH 7.4 (RU) in experiment [5] stood at 12.2 RU. Further, the Ratio (pH 7.4/pH 6.0) in experiment [7] was 2.06e-06. In addition, the Ratio (pH 6.0/pH 7.4) in [8] stood at 485000.
In the case of mAb1 N434F (antibody), the Kd in the experiment with rat FcRn (rat) [13] and in the experiment with rat FcRn (rat) [14] was 26 nM throughout. Moreover, in experiment [24], the enhancement of FcγRIIIa binding vs WT was 16 to 40%. Also, the Steady State RU with rat FcRn (rat) [20] turned out to be 61.5 RU; with rat FcRn (rat) [22] it was 54.9 RU.
mAb1 N434Y (antibody): the figures for the koff with rat FcRn (rat) [11], with rat FcRn (rat) [13] and with rat FcRn (rat) [19] were 0.00133 s⁻¹, 0.00346 s⁻¹ and 0.0035 s⁻¹, respectively. Moreover, in [12], the FcγRIIIa V158 affinity fold change relative to WT came to 1.41 fold. The Kd in the experiment with rat FcRn (rat) [13] and with rat FcRn (rat) [14] was 23 nM in each case. The kon with rat FcRn (rat) [13] and with rat FcRn (rat) [19] was 145000 M⁻¹ s⁻¹ in each case. For the same substance, the enhancement of FcγRIIIa binding vs WT in [24] lay within 16 to 40%. This substance yielded a FcRn affinity column elution pH in experiment [15] of 8.46 pH. Besides, the Steady State RU worked out at 66 RU with rat FcRn (rat) [20] and 47 RU in the experiment with rat FcRn (rat) [22]. Besides, the fold slower off-rate vs WT with rat FcRn (rat) [25] is more than 2 fold.
For the substance mAb1 YTE (M252Y/S254T/T256E) (antibody), the koff in the experiment with rat FcRn (rat) [11] is 0.00066 s⁻¹; with rat FcRn (rat) [13], 0.00121 s⁻¹; in experiment [2] it was 0.045 s⁻¹; in experiment [16], 0.047 s⁻¹; with rat FcRn (rat) [19], 0.0012 s⁻¹; in experiment [6], 0.05 s⁻¹. In addition, the FcγRIIIa V158 affinity fold change relative to WT in experiment [12] turned out to be 0.52 fold. Also, the Kd with rat FcRn (rat) [13] came out at 18 nM; in the experiment with rat FcRn (rat) [14] it was 18 nM; in experiment [3], 342 nM; in [16], 342 nM; in experiment [18], 1040 nM. The kon in the experiment with rat FcRn (rat) [13] was 65200 M⁻¹ s⁻¹; in experiment [2], 143000 M⁻¹ s⁻¹; in experiment [16], 140000 M⁻¹ s⁻¹; in the experiment with rat FcRn (rat) [19] it was 65000 M⁻¹ s⁻¹; in [6], 143000 M⁻¹ s⁻¹. In [1], the Ka turned out to be 2.92e+06 M⁻¹. In experiment [24], this substance yielded a reduction in binding response vs wildtype of 50%. The same substance gave a FcRn affinity column elution pH in experiment [15] of 8.14 pH. In addition, the Steady State RU with rat FcRn (rat) [17] stood at 53.9 RU; in [4] it was 13.2 RU; with rat FcRn (rat) [20], 53.9 RU; in experiment [21], 13.2 RU; in experiment [9], 13.1 RU; in the experiment with rat FcRn (rat) [22], 53.9 RU. The substance further had a Steady State RU in [10] of 13.2 RU. The same substance gave a Steady State Binding, pH 7.4 (RU) in experiment [5] of 13.2 RU. In experiment [8], the Ratio (pH 6.0/pH 7.4) was 221000.
